Measured values reported in patent US20210269552A1 (GO THERAPEUTICS, published 2021).
No end group written: not given here.

Key:
[1] = biological target: T1, MUC1 alanine library glycopeptide 8 (human, GalNAc-Serine / GalNAc-Threonine at the bold underlined positions of Table 10A (marking not preserved); the Ser-GalNAc at position 20 is replaced by alanine); assay: ELISA, peptide coated at 0.25 µg/ml, antibody supernatant; OD mutant peptide / OD wild type glycopeptide (SEQ ID NO:99)
T1 construct: Position 20 (Ser-GalNAc) replaced by alanine
T1 peptide: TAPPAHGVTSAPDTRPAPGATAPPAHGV
Procedure: (§1) Glycopeptides and relevant controls were diluted to 0.25 μg/ml in 0.2 M bicarbonate buffer pH 9.8 and 100 μl was plated onto each well of a high binding ELISA plate. Plates were then incubated overnight at 4° C. After discarding the coating buffer, the plate was blocked with 300 μl per well of blocking buffer (2.5% BSA in 1×PBS) for 1 hr at room temperature. Blocking buffer was then discarded, and 100 μl per well of antibody supernatant for each of 5E5, 1AG, and 4AG (diluted in blocking buffer) was added and incubated for 1 hr at room temperature. Antibody supernatant dilutions were previously optimized for each antibody (data not shown). Biotinylated Villa Villosa lectin (100 μl per well of 1 μg/ml in blocking buffer) was added to the plate as a control to detect the presence of GalNAc modified residues on the peptide. Plates were washed 3 times with 300 μl per well 1×TBS/0.05% Tween-20 (TBST). The secondary antibody Goat-anti mouse IgG (H+L)-HRP was diluted 1/5000 in blocking buffer and 100 μl of the diluted antibody was added per well and incubated on the plate for 1 hr at room temperature. Streptavidin-HRP was diluted 1/3000 in blocking buffer and 100 μl of the diluted streptavidin-HRP was added to wells containing the biotinylated lectin. Following secondary incubation, the plate was washed 4 times with 300 μl of TBST per well and then developed with 75 μl of room temperature 1-Step TMB substrate. After 1 minute, color development was stopped using 75 μl 2 N sulfuric acid. The plate was then read at 450 nm using a plate reader (Molecular Device SpectraMax i3).

[2] = biological target: T2, MUC1 alanine library glycopeptide 9 (human, GalNAc-Serine / GalNAc-Threonine at the bold underlined positions of Table 10A (marking not preserved); the Thr-GalNAc at position 21 is replaced by alanine); assay: as above
T2 construct: Position 21 (Thr-GalNAc) replaced by alanine
T2 peptide: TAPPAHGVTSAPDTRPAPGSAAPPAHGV
Procedure: as §1

BSA [3] = biological target: T3, BSA (bovine, UniProt P02769); assay: indirect ELISA on BSA blocked control wells, hybridoma supernatant, anti-mouse IgG-HRP, OD 450 nm
T3 construct: commercial protein in control wells; also called bovine serum albumin
T3 sequence (P02769 25-607 limits assumed): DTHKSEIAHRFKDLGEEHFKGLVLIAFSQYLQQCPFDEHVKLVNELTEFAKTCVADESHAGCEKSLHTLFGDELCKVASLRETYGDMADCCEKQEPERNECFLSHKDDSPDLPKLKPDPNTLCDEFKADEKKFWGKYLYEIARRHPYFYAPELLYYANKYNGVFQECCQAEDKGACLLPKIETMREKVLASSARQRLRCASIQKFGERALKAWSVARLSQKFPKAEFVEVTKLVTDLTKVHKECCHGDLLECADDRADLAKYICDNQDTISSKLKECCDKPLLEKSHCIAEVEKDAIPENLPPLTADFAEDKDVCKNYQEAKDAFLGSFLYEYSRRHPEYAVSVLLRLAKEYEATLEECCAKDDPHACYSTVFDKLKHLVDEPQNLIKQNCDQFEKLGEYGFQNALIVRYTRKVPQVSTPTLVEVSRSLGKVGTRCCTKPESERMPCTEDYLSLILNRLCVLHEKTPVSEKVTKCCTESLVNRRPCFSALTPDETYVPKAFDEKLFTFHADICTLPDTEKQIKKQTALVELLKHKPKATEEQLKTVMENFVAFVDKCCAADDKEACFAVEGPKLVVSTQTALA
Procedure: (§2) ELISA plates were coated with MUC1 peptides titrated in 0.2 M bicarbonate buffer, pH 9.4 over night in concentrations ranging from 0.08 μg/ml to 10 μg/ml. BSA was used as a control/measure of background. The plates were then blocked with SuperBlock™ (Thermo Fisher) for 1 hr at room temperature. After plate washing, 1AG and 4AG hybridoma supernatants were incubated on the ELISA plate for 1 hour. The plates were then washed, and then incubated with secondary antibody (1/3000 Goat Anti-mouse IgG (H+L) HRP (abcam 62-6520)) for 1 hour. The plate was then washed and color was developed with 1-Step™ Ultra TMB (Thermo Fisher) for 2 minutes. Color development was then stopped with 2 N Sulfuric Acid. Absorbance at 450 nm was then measured.

[4] = biological target: T4, MUC1 alanine library glycopeptide 12 (human, GalNAc-Serine / GalNAc-Threonine at the bold underlined positions of Table 10A (marking not preserved)); assay: alanine-scan ELISA: peptides coated at 0.25 ug/ml, antibody supernatant, anti-mouse IgG-HRP; OD450 divided by OD450 on the wild-type peptide
T4 peptide: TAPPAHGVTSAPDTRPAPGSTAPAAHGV
Procedure: as §1

1 = biological target: T5, 1 (GalNAc-Ser / GalNAc-Thr at the positions marked bold and underlined in Table 10A (the marking is lost in the text as given)); assay: as above
T5 construct: also called MUC1 alanine library glycopeptide 1; peptide 1
T5 peptide: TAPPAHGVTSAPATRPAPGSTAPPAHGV
Procedure: as §1

[5] = biological target: T6, MUC1 alanine library glycopeptide 4 (human, GalNAc-Serine / GalNAc-Threonine at the bold underlined positions of Table 10A (marking not preserved)); assay: as above
T6 construct: Position 16 (P) replaced by alanine
T6 peptide: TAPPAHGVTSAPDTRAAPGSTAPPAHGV
Procedure: as §1

[6] = biological target: T1, MUC1 alanine library glycopeptide 8; assay: as above
Procedure: as §1

[7] = biological target: T7, MUC1 alanine library glycopeptide 3 (human, GalNAc-Serine / GalNAc-Threonine at the bold underlined positions of Table 10A (marking not preserved)); assay: as above
T7 construct: Position 15 (R) replaced by alanine
T7 peptide: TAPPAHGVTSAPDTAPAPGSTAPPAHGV
Procedure: as §1

2 = biological target: T8, 2 (GalNAc-Ser / GalNAc-Thr at the positions marked bold and underlined in Table 10A (the marking is lost in the text as given)); assay: as above
T8 construct: also called MUC1 alanine library glycopeptide 2; peptide 2
T8 peptide: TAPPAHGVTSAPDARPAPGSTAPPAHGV
Procedure: as §1

Negative = biological target: T9, Negative (none (non-glycosylated)); assay: as above
T9 construct: also called Negative Control
T9 peptide: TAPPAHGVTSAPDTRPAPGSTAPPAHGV
Procedure: as §1

Irrelevant Glycopeptide = biological target: T10, Irrelevant Glycopeptide (GalNAc-Ser / GalNAc-Thr at the positions marked bold and underlined in Table 10B (the marking is lost in the text as given)); assay: as above
T10 peptide: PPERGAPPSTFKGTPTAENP
Procedure: as §1

[8] = biological target: T11, Glycosylated peptide RPAPGSTAPPAHGVT (Table 5, SPR) (human, also: GalNAc at sites not preserved); assay: SPR, Biacore T200, antibody on chip, peptide injected in single-cycle 6.25-100 nM, 25 C
T11 construct: Printed without biotin
T11 peptide: RPAPGSTAPPAHGVT
Procedure: Binding of the 1AG and 4AG antibodies to one glycysolated and one non-glycosylated peptide (Table 5) was assessed by surface plasmon resonance (SPR).
All SPR experiments were performed on a Biacore T200 with a CM5 sensor chip with 10,000 RU anti-mouse antibody on each channel (GE Healthcare) at 25° C. with HBS-P+ as running and sample buffer (10 mM HEPES pH 7.4, 150 mM NaCl, 0.05% Tween 20, and 1 mg/ml BSA) and 10 mM glycine, pH 1.7 as regeneration buffer.
The 1AG and 4AG antibodies were immobilized as a 30 μg/mL solution in 10 mM sodium acetate, pH 5.0 using standard amine coupling chemistry (EDC/NHS activation). Antibody capture was performed using a 10× dilution into reaction buffer for 7 to 10 minutes at 5 μL/min. Immobilization levels of 600 to 1000 RU were used. […] The dissociation was monitored for 5 minutes to 30 minutes.

BSA [9] = biological target: T3, BSA; assay: indirect ELISA, BSA control wells drawn on the peptide axis, hybridoma supernatant, anti-mouse IgG-HRP, OD 450 nm
Procedure: as §2

[10] = biological target: T12, MUC1 alanine library glycopeptide 6 (human, GalNAc-Serine / GalNAc-Threonine at the bold underlined positions of Table 10A (marking not preserved)); assay: alanine-scan ELISA: peptides coated at 0.25 ug/ml, antibody supernatant, anti-mouse IgG-HRP; OD450 divided by OD450 on the wild-type peptide
T12 construct: Position 18 (P) replaced by alanine
T12 peptide: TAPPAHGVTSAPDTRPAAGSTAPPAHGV
Procedure: as §1

[11] = biological target: T13, MUC1 alanine library glycopeptide 10 (human, GalNAc-Serine / GalNAc-Threonine at the bold underlined positions of Table 10A (marking not preserved)); assay: as above
T13 construct: Position 22 (A) replaced by glycine
T13 peptide: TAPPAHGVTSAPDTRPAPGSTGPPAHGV
Procedure: as §1

[12] = biological target: T14, MUC1 alanine library glycopeptide 11 (human, GalNAc-Serine / GalNAc-Threonine at the bold underlined positions of Table 10A (marking not preserved)); assay: as above
T14 construct: Position 23 (P) replaced by alanine
T14 peptide: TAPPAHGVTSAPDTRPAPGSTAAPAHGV
Procedure: as §1

| Molecule | percent binding compared to the wild type peptide [1] | percent binding compared to the wild type peptide [2] | binding result (BSA [3]) | binding result [4] | binding result 1 | binding result [5] | binding result [6] | binding result [7] | binding result 2 | binding result (Negative) | binding result (Irrelevant Glycopeptide) | Kd [8] | koff [8] | kon [8] | binding result (BSA [9]) | binding result [10] | binding result [11] | binding result [12] |
| --- | --- | --- | --- | --- | --- | --- | --- | --- | --- | --- | --- | --- | --- | --- | --- | --- | --- | --- |
| 5E5 (antibody) | 18% | 2.93% | – | – | – | – | – | – | – | – | – | – | – | – | – | – | – | – |
| 1AG (antibody, V domains shown, Mouse monoclonal antibody from Balb/c hybridoma; Used as hybridoma supernatant in the ELISAs; also called mAb 1AG; antibody 1AG) VH: EVKLLESGGGLVQPGGSLKLSCAASGFDFSRDWMSWVRQAPGKGLEWIGEINPDSSTKNYTPSLKDKFIISRDNAKNTLFLQMSSVRSEDTALYYCATSHYYGLFGYWGQGTLVTVSA VL: DIVLTQSPASLTVSLGQRATISCRASKSVSTSGYSYMHWYQQKPGQPPKLLIYLASYLESGVPARFSGSGSGTDFTLNIHPVEEEDAATYYCQHSRELPRTFGGGTKLEIK | 2.23% | 6.07% | no binding | binds | binds | binds | no binding (tested: 0.25 ug/ml coating peptide) | binds | binds | no binding (tested: 0.25 ug/ml coating peptide) | no binding (tested: 0.25 ug/ml coating peptide) | 37.3 nM | 0.007 s⁻¹ | 179000 M⁻¹ s⁻¹ | – | – | – | – |
| 4AG (antibody, V domains shown, Mouse monoclonal antibody from Balb/c hybridoma; Used as hybridoma supernatant in the ELISAs; also called mAb 4AG; antibody 4AG) VH: EVKLLESGGGLVQPGGSLKLSCVASGFDFSRYWMSWVRQAPGKGPEWIGEINPESNTMNYSPSLKEKFIISRDTAKNMLYLQMSKVRSEDTALYYCATSHHYGLFDYWGQGTLVTVSA VL: DIVLTQSPASLAVSLGQRATISCRASKSVSTSGYNYIHWYQQKPGQPPKLLIYLASYLESGVPARFSGSGSGTDFTLNIHPVEEEDAATYFCQHSRELPRTFGGGTKLEFK | 1.63% | 14.6% | – | binds | binds | binds | no binding (tested: 0.25 ug/ml coating peptide) | binds | binds | no binding (tested: 0.25 ug/ml coating peptide) | no binding (tested: 0.25 ug/ml coating peptide) | 3.4 nM | 0.00093 s⁻¹ | 272000 M⁻¹ s⁻¹ | no binding (tested: 10 ug/ml on the peptide axis) | binds | binds | binds |
